Test results from US20110294738A1, “PTHR1 RECEPTOR COMPOUNDS” (priority 2008, published 2011).
* marks the point of attachment. Palmitoyl = CCCCCCCCCCCCCCCC(=O)*

Biological target: PTHR1 receptor
Sequence (P25961 whole entry): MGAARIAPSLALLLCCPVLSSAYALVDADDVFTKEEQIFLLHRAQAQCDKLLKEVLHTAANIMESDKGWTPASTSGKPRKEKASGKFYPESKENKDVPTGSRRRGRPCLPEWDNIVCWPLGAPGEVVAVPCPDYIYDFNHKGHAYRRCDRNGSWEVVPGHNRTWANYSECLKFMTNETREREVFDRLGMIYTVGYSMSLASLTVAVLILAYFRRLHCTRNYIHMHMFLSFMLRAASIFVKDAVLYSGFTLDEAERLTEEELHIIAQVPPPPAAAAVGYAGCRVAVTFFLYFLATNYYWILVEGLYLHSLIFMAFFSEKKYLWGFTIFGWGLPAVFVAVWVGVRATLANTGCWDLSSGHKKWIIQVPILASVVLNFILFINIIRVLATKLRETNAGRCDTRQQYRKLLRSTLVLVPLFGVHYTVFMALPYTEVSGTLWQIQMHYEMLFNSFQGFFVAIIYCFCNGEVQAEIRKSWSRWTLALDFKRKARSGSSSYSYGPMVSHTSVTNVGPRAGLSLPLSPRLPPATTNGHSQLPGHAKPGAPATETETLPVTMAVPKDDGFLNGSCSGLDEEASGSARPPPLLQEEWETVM

Fold Shift of EC50 [fold] | Inhibition of Maximal Response [%] | Binder
4.7 | 37.2 | Palmitoyl-KKSWSRWTLALDFKRKAR-NH2 (SMILES CCCCCCCCCCCCCCCC(=O)N[C@@H](CCCCN)C(=O)N[C@@H](CCCCN)C(=O)N[C@@H](CO)C(=O)N[C@@H](Cc1c[nH]c2ccccc12)C(=O)N[C@@H](CO)C(=O)N[C@@H](CCCNC(=N)N)C(=O)N[C@@H](Cc1c[nH]c2ccccc12)C(=O)N[C@H](C(=O)N[C@@H](CC(C)C)C(=O)N[C@@H](C)C(=O)N[C@@H](CC(C)C)C(=O)N[C@@H](CC(=O)O)C(=O)N[C@@H](Cc1ccccc1)C(=O)N[C@@H](CCCCN)C(=O)N[C@@H](CCCNC(=N)N)C(=O)N[C@@H](CCCCN)C(=O)N[C@@H](C)C(=O)N[C@@H](CCCNC(=N)N)C(N)=O)[C@@H](C)O) [Compound 97]
1.8 | 26.8 | Palmitoyl-NGEVQAEIKKSWSR-NH2 (SMILES CCCCCCCCCCCCCCCC(=O)N[C@@H](CC(N)=O)C(=O)NCC(=O)N[C@@H](CCC(=O)O)C(=O)N[C@H](C(=O)N[C@@H](CCC(N)=O)C(=O)N[C@@H](C)C(=O)N[C@@H](CCC(=O)O)C(=O)N[C@H](C(=O)N[C@@H](CCCCN)C(=O)N[C@@H](CCCCN)C(=O)N[C@@H](CO)C(=O)N[C@@H](Cc1c[nH]c2ccccc12)C(=O)N[C@@H](CO)C(=O)N[C@@H](CCCNC(=N)N)C(N)=O)[C@@H](C)CC)C(C)C) [Compound 100]
12.7 | -29.2 | Palmitoyl-TNAGRSDTAQQYRKLL-NH2 (SMILES CCCCCCCCCCCCCCCC(=O)N[C@H](C(=O)N[C@@H](CC(N)=O)C(=O)N[C@@H](C)C(=O)NCC(=O)N[C@@H](CCCNC(=N)N)C(=O)N[C@@H](CO)C(=O)N[C@@H](CC(=O)O)C(=O)N[C@H](C(=O)N[C@@H](C)C(=O)N[C@@H](CCC(N)=O)C(=O)N[C@@H](CCC(N)=O)C(=O)N[C@@H](Cc1ccc(O)cc1)C(=O)N[C@@H](CCCNC(=N)N)C(=O)N[C@@H](CCCCN)C(=O)N[C@@H](CC(C)C)C(=O)N[C@@H](CC(C)C)C(N)=O)[C@@H](C)O)[C@@H](C)O) [Compound 78]
6.9 | 9.9 | Palmitoyl-TNAGRADTRQQYRKLL-NH2 (SMILES CCCCCCCCCCCCCCCC(=O)N[C@H](C(=O)N[C@@H](CC(N)=O)C(=O)N[C@@H](C)C(=O)NCC(=O)N[C@@H](CCCNC(=N)N)C(=O)N[C@@H](C)C(=O)N[C@@H](CC(=O)O)C(=O)N[C@H](C(=O)N[C@@H](CCCNC(=N)N)C(=O)N[C@@H](CCC(N)=O)C(=O)N[C@@H](CCC(N)=O)C(=O)N[C@@H](Cc1ccc(O)cc1)C(=O)N[C@@H](CCCNC(=N)N)C(=O)N[C@@H](CCCCN)C(=O)N[C@@H](CC(C)C)C(=O)N[C@@H](CC(C)C)C(N)=O)[C@@H](C)O)[C@@H](C)O) [Compound 77]
1.1 | 34 | Palmitoyl-NGEVQAEIKKSWSRWTLALD-NH2 (SMILES CCCCCCCCCCCCCCCC(=O)N[C@@H](CC(N)=O)C(=O)NCC(=O)N[C@@H](CCC(=O)O)C(=O)N[C@H](C(=O)N[C@@H](CCC(N)=O)C(=O)N[C@@H](C)C(=O)N[C@@H](CCC(=O)O)C(=O)N[C@H](C(=O)N[C@@H](CCCCN)C(=O)N[C@@H](CCCCN)C(=O)N[C@@H](CO)C(=O)N[C@@H](Cc1c[nH]c2ccccc12)C(=O)N[C@@H](CO)C(=O)N[C@@H](CCCNC(=N)N)C(=O)N[C@@H](Cc1c[nH]c2ccccc12)C(=O)N[C@H](C(=O)N[C@@H](CC(C)C)C(=O)N[C@@H](C)C(=O)N[C@@H](CC(C)C)C(=O)N[C@@H](CC(=O)O)C(N)=O)[C@@H](C)O)[C@@H](C)CC)C(C)C) [Compound 105]
1.1 | 7 | Palmitoyl-EIKKSWSRWTLALDFKRKAR-NH2 (SMILES CCCCCCCCCCCCCCCC(=O)N[C@@H](CCC(=O)O)C(=O)N[C@H](C(=O)N[C@@H](CCCCN)C(=O)N[C@@H](CCCCN)C(=O)N[C@@H](CO)C(=O)N[C@@H](Cc1c[nH]c2ccccc12)C(=O)N[C@@H](CO)C(=O)N[C@@H](CCCNC(=N)N)C(=O)N[C@@H](Cc1c[nH]c2ccccc12)C(=O)N[C@H](C(=O)N[C@@H](CC(C)C)C(=O)N[C@@H](C)C(=O)N[C@@H](CC(C)C)C(=O)N[C@@H](CC(=O)O)C(=O)N[C@@H](Cc1ccccc1)C(=O)N[C@@H](CCCCN)C(=O)N[C@@H](CCCNC(=N)N)C(=O)N[C@@H](CCCCN)C(=O)N[C@@H](C)C(=O)N[C@@H](CCCNC(=N)N)C(N)=O)[C@@H](C)O)[C@@H](C)CC) [Compound 96]
16.9 | 2.4 | Palmitoyl-TNAGASDTRQQYRKLL-NH2 (SMILES CCCCCCCCCCCCCCCC(=O)N[C@H](C(=O)N[C@@H](CC(N)=O)C(=O)N[C@@H](C)C(=O)NCC(=O)N[C@@H](C)C(=O)N[C@@H](CO)C(=O)N[C@@H](CC(=O)O)C(=O)N[C@H](C(=O)N[C@@H](CCCNC(=N)N)C(=O)N[C@@H](CCC(N)=O)C(=O)N[C@@H](CCC(N)=O)C(=O)N[C@@H](Cc1ccc(O)cc1)C(=O)N[C@@H](CCCNC(=N)N)C(=O)N[C@@H](CCCCN)C(=O)N[C@@H](CC(C)C)C(=O)N[C@@H](CC(C)C)C(N)=O)[C@@H](C)O)[C@@H](C)O) [Compound 76]
1 | 10.8 | Palmitoyl-YFRRLHSTRNYIH-NH2 (SMILES CCCCCCCCCCCCCCCC(=O)N[C@@H](Cc1ccc(O)cc1)C(=O)N[C@@H](Cc1ccccc1)C(=O)N[C@@H](CCCNC(=N)N)C(=O)N[C@@H](CCCNC(=N)N)C(=O)N[C@@H](CC(C)C)C(=O)N[C@@H](Cc1c[nH]cn1)C(=O)N[C@@H](CO)C(=O)N[C@H](C(=O)N[C@@H](CCCNC(=N)N)C(=O)N[C@@H](CC(N)=O)C(=O)N[C@@H](Cc1ccc(O)cc1)C(=O)N[C@H](C(=O)N[C@@H](Cc1c[nH]cn1)C(N)=O)[C@@H](C)CC)[C@@H](C)O) [Compound 6]
1.2 | 26.8 | Palmitoyl-SRWTLALDFKRKAR-NH2 (SMILES CCCCCCCCCCCCCCCC(=O)N[C@@H](CO)C(=O)N[C@@H](CCCNC(=N)N)C(=O)N[C@@H](Cc1c[nH]c2ccccc12)C(=O)N[C@H](C(=O)N[C@@H](CC(C)C)C(=O)N[C@@H](C)C(=O)N[C@@H](CC(C)C)C(=O)N[C@@H](CC(=O)O)C(=O)N[C@@H](Cc1ccccc1)C(=O)N[C@@H](CCCCN)C(=O)N[C@@H](CCCNC(=N)N)C(=O)N[C@@H](CCCCN)C(=O)N[C@@H](C)C(=O)N[C@@H](CCCNC(=N)N)C(N)=O)[C@@H](C)O) [Compound 104]
1.2 | -7.3 | Palmitoyl-WTLALDFKRKAR-NH2 (SMILES CCCCCCCCCCCCCCCC(=O)N[C@@H](Cc1c[nH]c2ccccc12)C(=O)N[C@H](C(=O)N[C@@H](CC(C)C)C(=O)N[C@@H](C)C(=O)N[C@@H](CC(C)C)C(=O)N[C@@H](CC(=O)O)C(=O)N[C@@H](Cc1ccccc1)C(=O)N[C@@H](CCCCN)C(=O)N[C@@H](CCCNC(=N)N)C(=O)N[C@@H](CCCCN)C(=O)N[C@@H](C)C(=O)N[C@@H](CCCNC(=N)N)C(N)=O)[C@@H](C)O) [Compound 103]
1.2 | 25.3 | Palmitoyl-NGEVQAEIKKSWSRWT-NH2 (SMILES CCCCCCCCCCCCCCCC(=O)N[C@@H](CC(N)=O)C(=O)NCC(=O)N[C@@H](CCC(=O)O)C(=O)N[C@H](C(=O)N[C@@H](CCC(N)=O)C(=O)N[C@@H](C)C(=O)N[C@@H](CCC(=O)O)C(=O)N[C@H](C(=O)N[C@@H](CCCCN)C(=O)N[C@@H](CCCCN)C(=O)N[C@@H](CO)C(=O)N[C@@H](Cc1c[nH]c2ccccc12)C(=O)N[C@@H](CO)C(=O)N[C@@H](CCCNC(=N)N)C(=O)N[C@@H](Cc1c[nH]c2ccccc12)C(=O)N[C@H](C(N)=O)[C@@H](C)O)[C@@H](C)CC)C(C)C) [Compound 101]
1 | 17.5 | Palmitoyl-NGEVQAEIKKSW-NH2 (SMILES CCCCCCCCCCCCCCCC(=O)N[C@@H](CC(N)=O)C(=O)NCC(=O)N[C@@H](CCC(=O)O)C(=O)N[C@H](C(=O)N[C@@H](CCC(N)=O)C(=O)N[C@@H](C)C(=O)N[C@@H](CCC(=O)O)C(=O)N[C@H](C(=O)N[C@@H](CCCCN)C(=O)N[C@@H](CCCCN)C(=O)N[C@@H](CO)C(=O)N[C@@H](Cc1c[nH]c2ccccc12)C(N)=O)[C@@H](C)CC)C(C)C) [Compound 99]
1 | 13 | Palmitoyl-LAYFRRLHSTRNYIH-NH2 (SMILES CCCCCCCCCCCCCCCC(=O)N[C@@H](CC(C)C)C(=O)N[C@@H](C)C(=O)N[C@@H](Cc1ccc(O)cc1)C(=O)N[C@@H](Cc1ccccc1)C(=O)N[C@@H](CCCNC(=N)N)C(=O)N[C@@H](CCCNC(=N)N)C(=O)N[C@@H](CC(C)C)C(=O)N[C@@H](Cc1c[nH]cn1)C(=O)N[C@@H](CO)C(=O)N[C@H](C(=O)N[C@@H](CCCNC(=N)N)C(=O)N[C@@H](CC(N)=O)C(=O)N[C@@H](Cc1ccc(O)cc1)C(=O)N[C@H](C(=O)N[C@@H](Cc1c[nH]cn1)C(N)=O)[C@@H](C)CC)[C@@H](C)O) [Compound 5]
1 | 0.5 | Palmitoyl-NGEVQAEIKKSWSRWTLA-NH2 (SMILES CCCCCCCCCCCCCCCC(=O)N[C@@H](CC(N)=O)C(=O)NCC(=O)N[C@@H](CCC(=O)O)C(=O)N[C@H](C(=O)N[C@@H](CCC(N)=O)C(=O)N[C@@H](C)C(=O)N[C@@H](CCC(=O)O)C(=O)N[C@H](C(=O)N[C@@H](CCCCN)C(=O)N[C@@H](CCCCN)C(=O)N[C@@H](CO)C(=O)N[C@@H](Cc1c[nH]c2ccccc12)C(=O)N[C@@H](CO)C(=O)N[C@@H](CCCNC(=N)N)C(=O)N[C@@H](Cc1c[nH]c2ccccc12)C(=O)N[C@H](C(=O)N[C@@H](CC(C)C)C(=O)N[C@@H](C)C(N)=O)[C@@H](C)O)[C@@H](C)CC)C(C)C) [Compound 98]
